Reference: US20240343823A1 (Ablynx, published 2024)

Assays:
[1] = target: T1, cyno GPC3 expressed on CHO Flp-In cells (cynomolgus); assay: flow cytometry on CHO Flp-In cyno GPC3 cells
T1 construct: range 3-559; On cells; also called cyGPC3 CHO; CHO-cGPC3

[2] = target: T1, cyno GPC3 expressed on CHO Flp-In cells; assay: flow cytometry on cells expressing GPC3; lower end tied by Table 21 to CHO cyno GPC3
[3] = target: T2, TCRab on primary cyno T cells (cynomolgus); assay: competition flow cytometry on cyno T cells, competitor T017000623 at EC30 (5E-08 M)
T2 construct: whole, on cells; also called Primary cy T cells; cyno TCR
Procedure: T cells (human T cells obtained as described in Example 3 and cyno T cells purchased from LPT laboratory, Germany) were thawed and counted on the day of the assay and diluted to a concentration of 1E+06 cells/mL, before adding 75 μL to the wells of a V-bottom 96-well plate (Greiner, cat no 651180). Cells were washed once with cold FACS buffer, before adding 25 μL Nb and 25 μL competitor to the wells. […] Cells were resuspended and plates were incubated at 4° C. for 90 minutes, after which plates were washed twice in cold FACS buffer. Cells were resuspended in 50 μl 1/1000 diluted Monoclonal ANTI-FLAG® M2 (Sigma Aldrich, cat no F1804) in FACS buffer and incubated at 4° C. for 30 minutes. Plates were washed twice in cold FACS buffer. […] Plates were washed twice in cold FACS buffer. Cells were resuspended in 55 μL 1/1000 diluted Propidium Iodide (Sigma-Aldrich, cat no P4170) in FACS buffer before acquiring data on the MACSQuant X (Miltenyi biotec).

[4] = target: T3, Recombinant human GPC4/hFc (R&D Systems, cat no 9195-GP) (human, UniProt O75487 19-529, limits assumed); assay: SPR ProteOn XPR36, GPC4/hFc captured on anti-human IgG1
T3 construct: Bought; not shown: captured with anti-human IgG1
T3 sequence (looked up): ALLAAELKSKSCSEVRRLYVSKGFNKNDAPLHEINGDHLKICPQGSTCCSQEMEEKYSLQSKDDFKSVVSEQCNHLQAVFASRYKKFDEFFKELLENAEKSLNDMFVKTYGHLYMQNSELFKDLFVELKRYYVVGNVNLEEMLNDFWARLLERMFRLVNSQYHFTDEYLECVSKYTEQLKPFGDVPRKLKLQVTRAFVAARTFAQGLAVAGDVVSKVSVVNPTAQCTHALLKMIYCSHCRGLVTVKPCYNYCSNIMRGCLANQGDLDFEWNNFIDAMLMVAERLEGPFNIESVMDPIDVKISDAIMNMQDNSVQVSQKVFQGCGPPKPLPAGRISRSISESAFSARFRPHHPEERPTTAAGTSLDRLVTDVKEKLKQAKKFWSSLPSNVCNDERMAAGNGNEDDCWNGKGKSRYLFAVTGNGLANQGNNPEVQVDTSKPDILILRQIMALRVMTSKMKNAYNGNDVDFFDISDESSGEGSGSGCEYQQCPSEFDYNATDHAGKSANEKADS
Excerpt: Data was double referenced by subtracting a reference ligand lane and a blank buffer injection.

[5] = target: T4, cyno TCRab, in house produced (extracellular domains fused to a zipper peptide) (cynomolgus); assay: SPR ProteOn XPR36, TCRab immobilized by amine coupling, 1:1 model
T4 construct: Numbering of the four differences is not explained; not shown: variable domains, if any; any residues beyond C131 of the beta chain
T4 alpha: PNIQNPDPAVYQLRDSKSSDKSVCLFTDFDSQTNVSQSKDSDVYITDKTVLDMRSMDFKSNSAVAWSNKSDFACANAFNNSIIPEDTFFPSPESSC
T4 beta: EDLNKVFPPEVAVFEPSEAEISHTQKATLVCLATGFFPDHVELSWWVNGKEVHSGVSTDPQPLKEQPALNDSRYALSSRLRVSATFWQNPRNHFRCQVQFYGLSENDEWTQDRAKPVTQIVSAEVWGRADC
Procedure: Recombinant TCR proteins were immobilized on a GLC Sensor Chip (Biorad) via amine coupling, using EDC and NHS chemistry (running buffer: HBS-EP+, pH 7.4). Purified ISVDs were injected for 2 minutes (flow rate 45 μL/min) at different concentrations (between 0.2 nM and 200 nM) and dissociation was followed for 900 s. Regeneration was performed by injecting 3 M MgCl₂ for 3 minutes (flow rate 90 μL/min). Data was double referenced by subtracting a reference ligand lane and a blank buffer injection. Processed sensorgrams were analyzed based on the 1:1 interaction model (Langmuir binding model) using ProteOn Manager 3.1.0 (Version 3.1.0.6) software.

[6] = target: T5, human GPC2 (R&D systems, cat no 2304-GP) (human, UniProt Q8N158 24-554, limits assumed); assay: ELISA, GPC2 coated at 2 ug/mL
T5 construct: Bought
T5 sequence (looked up): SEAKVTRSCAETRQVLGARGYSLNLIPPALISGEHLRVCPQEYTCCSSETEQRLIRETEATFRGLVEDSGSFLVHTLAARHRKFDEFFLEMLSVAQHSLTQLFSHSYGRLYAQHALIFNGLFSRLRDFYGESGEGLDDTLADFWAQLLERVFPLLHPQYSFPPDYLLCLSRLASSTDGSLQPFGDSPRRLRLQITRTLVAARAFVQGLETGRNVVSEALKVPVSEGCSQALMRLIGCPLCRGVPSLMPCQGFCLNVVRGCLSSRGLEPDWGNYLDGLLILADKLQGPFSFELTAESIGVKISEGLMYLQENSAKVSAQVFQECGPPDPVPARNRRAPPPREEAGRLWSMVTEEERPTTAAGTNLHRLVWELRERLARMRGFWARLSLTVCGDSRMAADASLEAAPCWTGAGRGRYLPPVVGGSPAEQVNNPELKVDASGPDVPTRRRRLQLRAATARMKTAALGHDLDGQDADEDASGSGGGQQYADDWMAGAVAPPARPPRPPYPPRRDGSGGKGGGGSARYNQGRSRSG
Procedure: Human GPC1 (R&D systems, cat no 4519-GP), human GPC2 (R&D systems, cat no 2304-GP), human GPC3 (R&D systems, cat no 2119-GP), human Glypican-5 (R&D systems, cat no 2607-G5) and human Glypican-6 (R&D systems, cat no 2845-GP) were directly coated overnight at 4° C. (2 μg/mL, 1×PBS buffer) on a 384-well HB SpectraPlate (PerkinElmer). The following day the plate was washed 6 times (AquaMax microplate washer, Molecular devices) and blocked with 1×PBS+1% Casein for 2 hours at room temperature. […] After 6 final wash steps the es(HS)TMB substrate (SDT) was added and the reaction stopped by addition of 1 M HCl after 10 minutes. The absorbance of the plate was measured at wavelengths 450 and 620 nm on the Clariostar instrument (BMG LABTECH) and the OD₄₅₀-OD₆₂₀ calculated and plotted for data analysis.

B1: A022600424 (other)
chain: DVQLVESGGGVVQPGGSLRLSCVASGYVHKINFYGWYRQAPGKEREKVAHISIGDQTDYADSAKGRFTISRDESKNTVYLQMNSLRPEDTAAYYCRALSRIWPYDYWGQGTLVTVSSGGGGSEVQLVESGGGVVQPGGSLRLSCAASGFTFSSFAMTWVRRPPGKGLEWVATITNKGVTSYADSVKGRFTISRDNAKNTLYLQMNSLRPEDTALYICANARRTGPRAPTDIGSYRGQGTLVTVSSGGGGSGGGSEVQLVESGGGVVQPGGSLRLSCAASGSIFRSVFSSSTMEWYRQAPGKKRELVARIAPGEGTYYGALYADSVKGRFTISRDNAKNTVYLQMNSLRPEDTALYYCASGVAWGQGTLVTVSSGGGGSGGGSEVQLVESGGGVVQPGGSLRLSCAASGFTFRSFGMSWVRQAPGKGPEWVSSISGSGSDTLYADSVKGRFTISRDNSKNTLYLQMNSLRPEDTALYYCTIGGSLSRSSQGTLVTVSSA
notes: Trispecific tetravalent ISVD (VHH) T-cell engager: anti-TCR, two anti-GPC3 (biparatopic), anti-albumin; also called TCE01-5GS-A022600351-9GS-A022600314-9GS-ALB23002-A
EC50 [1]: 1.11 nM | EC50 [2]: 1 to 2 nM | IC50 [3]: 250 nM | binding result [4]: no binding (tested: between 4 nM and 1000 nM) | Kd [5]: 5.4 nM | binding result [6]: no binding
